Reference: patent US20250057968A1, “ANTI-DLL3 ANTIBODY AND PHARMACEUTICAL USE THEREOF, AND ANTIBODY-DRUG CONJUGATE CONTAINING ANTI-DLL3 ANTIBODY” (Jiangsu Hengrui Pharmaceuticals Co., Ltd., priority 2021, published 2025)

What was measured:
[1] = target: T1, Human DLL3 full-length protein on cells (human, UniProt Q9NYJ7 27-618); experiment: cell-based or functional assay
T1 sequence: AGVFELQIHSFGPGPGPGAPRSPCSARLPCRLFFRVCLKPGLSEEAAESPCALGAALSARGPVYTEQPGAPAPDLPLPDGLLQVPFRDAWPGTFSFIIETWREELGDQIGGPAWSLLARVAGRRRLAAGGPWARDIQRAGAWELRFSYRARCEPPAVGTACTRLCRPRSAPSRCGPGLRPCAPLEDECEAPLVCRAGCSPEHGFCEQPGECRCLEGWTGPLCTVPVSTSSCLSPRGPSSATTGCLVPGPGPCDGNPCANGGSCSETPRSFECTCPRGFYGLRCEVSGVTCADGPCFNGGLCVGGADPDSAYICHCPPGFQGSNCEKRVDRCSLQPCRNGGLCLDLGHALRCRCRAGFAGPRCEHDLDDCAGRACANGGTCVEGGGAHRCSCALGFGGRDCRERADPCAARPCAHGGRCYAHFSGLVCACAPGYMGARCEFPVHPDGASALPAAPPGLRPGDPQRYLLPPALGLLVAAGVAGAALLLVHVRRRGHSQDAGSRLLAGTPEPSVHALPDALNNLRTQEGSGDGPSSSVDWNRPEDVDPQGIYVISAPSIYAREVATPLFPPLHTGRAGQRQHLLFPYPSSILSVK

[2] = target: T2, Human DLL1 full-length protein on CHO-s cells (human, UniProt O00548 18-723); experiment: FACS on human DLL1/CHO-s cells
T2 construct: also called human DLL1/CHO-s
T2 sequence: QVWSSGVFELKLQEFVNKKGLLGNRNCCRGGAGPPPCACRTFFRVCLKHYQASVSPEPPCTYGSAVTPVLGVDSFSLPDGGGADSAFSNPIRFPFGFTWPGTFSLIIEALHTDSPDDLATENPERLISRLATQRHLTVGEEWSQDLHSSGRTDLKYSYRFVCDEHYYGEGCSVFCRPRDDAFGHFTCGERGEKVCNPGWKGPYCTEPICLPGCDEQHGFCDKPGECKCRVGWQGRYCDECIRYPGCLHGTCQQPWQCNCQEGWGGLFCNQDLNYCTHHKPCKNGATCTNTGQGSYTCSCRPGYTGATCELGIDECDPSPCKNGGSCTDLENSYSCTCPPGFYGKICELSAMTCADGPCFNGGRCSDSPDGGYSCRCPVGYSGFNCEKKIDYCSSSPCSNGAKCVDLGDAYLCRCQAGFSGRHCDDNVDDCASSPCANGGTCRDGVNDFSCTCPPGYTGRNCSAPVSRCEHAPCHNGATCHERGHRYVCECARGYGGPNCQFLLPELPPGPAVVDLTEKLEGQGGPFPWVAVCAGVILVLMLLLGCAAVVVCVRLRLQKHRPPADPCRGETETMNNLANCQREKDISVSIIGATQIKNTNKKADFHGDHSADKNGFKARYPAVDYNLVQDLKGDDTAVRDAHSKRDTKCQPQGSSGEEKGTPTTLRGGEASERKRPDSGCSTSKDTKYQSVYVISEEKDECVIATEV
Experimental: (§1) Stably transfected human DLL1/CHO-s and human DLL4/CHO-s cells were suspended at 1×10⁶/mL in FACS buffer (containing 1% BSA and pH 7.4 PBS), and the cell suspensions were added to a 96-well round-bottom plate (Corning, 3795) at 100 µL/well. The plate was centrifuged at 300 g for 5 min, and the supernatant was removed. Test antibodies were added at 100 μL/well, and the plate was incubated in the dark in a refrigerator at 4° C. for 1 h. After 3 washes by centrifugation at 300 g, working concentrations of PE F(ab′)2-goat anti-human IgG Fc secondary antibody (invitrogen, H10104) were added. The plate was incubated in the dark in a refrigerator at 4° C. for 40 min. After 3 washes by centrifugation at 300 g, the geometric mean fluorescence intensity was measured on an Invitrogen flow cytometer.

[3] = target: T3, Human DLL4 full-length protein on CHO-s cells (human, UniProt Q9NR61 27-685); experiment: FACS on human DLL4/CHO-s cells
T3 construct: also called human DLL4/CHO-s
T3 sequence (Q9NR61 27-685 limits assumed): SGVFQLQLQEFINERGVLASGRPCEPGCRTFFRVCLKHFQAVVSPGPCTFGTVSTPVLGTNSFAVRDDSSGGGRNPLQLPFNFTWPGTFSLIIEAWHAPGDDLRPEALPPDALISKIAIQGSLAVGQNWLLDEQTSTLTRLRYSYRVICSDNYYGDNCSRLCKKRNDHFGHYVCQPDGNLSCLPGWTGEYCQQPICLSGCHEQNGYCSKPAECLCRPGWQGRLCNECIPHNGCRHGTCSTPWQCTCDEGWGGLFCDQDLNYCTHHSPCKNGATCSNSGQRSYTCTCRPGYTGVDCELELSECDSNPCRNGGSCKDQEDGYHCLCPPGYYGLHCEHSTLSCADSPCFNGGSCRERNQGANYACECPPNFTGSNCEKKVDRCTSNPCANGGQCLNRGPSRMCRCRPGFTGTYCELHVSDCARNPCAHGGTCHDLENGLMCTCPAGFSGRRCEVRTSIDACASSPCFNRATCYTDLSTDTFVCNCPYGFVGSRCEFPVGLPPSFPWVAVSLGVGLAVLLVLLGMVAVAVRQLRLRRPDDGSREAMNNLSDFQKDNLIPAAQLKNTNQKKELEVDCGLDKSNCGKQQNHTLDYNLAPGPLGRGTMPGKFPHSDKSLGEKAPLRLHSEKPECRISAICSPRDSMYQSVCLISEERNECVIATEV
Experimental: as §1

[4] = target: T4, human DLL3 (ACRO, DLL3-H52H4) (human, UniProt Q9NYJ7 27-479); experiment: SPR (Biacore 8K), antibody captured on Protein A chip, 1:1 fit
T4 construct: bought antigen of the Biacore assay; construct not described
T4 sequence (looked up): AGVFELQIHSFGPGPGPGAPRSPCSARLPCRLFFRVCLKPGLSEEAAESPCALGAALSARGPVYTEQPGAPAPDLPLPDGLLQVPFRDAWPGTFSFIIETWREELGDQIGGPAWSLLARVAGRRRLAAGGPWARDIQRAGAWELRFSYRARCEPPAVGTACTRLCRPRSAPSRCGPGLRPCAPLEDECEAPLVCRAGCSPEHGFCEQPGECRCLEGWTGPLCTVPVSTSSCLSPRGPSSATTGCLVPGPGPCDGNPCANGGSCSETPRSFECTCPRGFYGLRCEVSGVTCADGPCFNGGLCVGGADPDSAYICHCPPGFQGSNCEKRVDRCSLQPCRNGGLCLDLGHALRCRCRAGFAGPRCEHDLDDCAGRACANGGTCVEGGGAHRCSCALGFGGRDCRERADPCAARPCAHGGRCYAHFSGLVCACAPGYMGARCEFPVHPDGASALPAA
Excerpt: Test antibodies were affinity-captured with a Protein A biosensor chip (Cat. #29127556, Cytiva) for 18 seconds, and then the antigens human DLL3 (ACRO, DLL3-H52H4), cynomolgus monkey DLL3 (KACTUS, DLL-RM103), and mouse DLL3 (KACTUS, DLL-MM103) were allowed to flow over the surface of the chip for 180 seconds, followed by 600 seconds of dissociation. Reaction signals were detected in real time using a Biacore 8K (Cytiva) instrument to obtain association and dissociation curves. After the dissociation in each experimental cycle, the biosensor chip was washed and regenerated with a 10 mM glycine-hydrochloric acid solution (pH 1.5) (Cat. #BR-1003-54, Cytiva). A 1:1 model was fit to the data. The results are shown in Table 12-1, Table 12-2, and Table 12-3.

B1: Hu6 (antibody, human IgG1, kappa, V domains shown)
VH: EVQLVQSGSELKKPGASVKVSCKASGYTFTDYYMNWVRQAPGQGLEWMGIINPYSGVTIYNHKFKGRFALSVDKSSNTAYLQISSLKAEDTAVYYCARQDSLLDYAMDYWGQGTTVTVSS
VL: DIQMTQSPSSLSASVGDRVTITCHASQGISGNMGWLQQKPGKAPKGLIYHGANLEDGVPSRFSGSGSGADYTLTISSLQPEDFADYYCVQYAQFPYTFGGGTKVEIKR
notes: also called hAb6L4H12
- IC50 (nM), cell killing caused by endocytosis of antibodies (DT3C, DMS53/DLL3 cells) [1]: 0.56 nM
- Imax, cell killing caused by endocytosis of antibodies (DT3C, DMS53/DLL3 cells) [1]: 87.2
- binding result [2]: no binding
- binding result [3]: no binding
- Kd [4]: 594 pM

B2: Hu100 (antibody, human IgG1, kappa, V domains shown)
VH: EVQLVESGGGLVKPGGSLRLSCAASGFTFSDSGMHWIRQAPGKGLEWVSYISSGSSTIHYADTVKGRFTISRDNAKNSLYLQMNSLRAEDTAVYYCASPLYYYGRSYNAVAYWGQGTTVTVSS
VL: DIQMTQSPSSLSASVGDRVTITCHASQNINVWLSWYQQKPGKVPKLLIYKASDLHTGVPSRFSGSGSGTDFTLTISSLQPEDVATYYCQQGQSYPLTFGGGTKVEIKR
notes: also called hAb100L1H1
- IC50 (nM), cell killing caused by endocytosis of antibodies (DT3C, DMS53/DLL3 cells) [1]: 1.47 nM
- Imax, cell killing caused by endocytosis of antibodies (DT3C, DMS53/DLL3 cells) [1]: 86.1
- binding result [2]: no binding
- binding result [3]: no binding
- Kd [4]: 471 pM
